In article PMC12288907 (JCI Insight, 2025):

Legend:
Assay in all cases: ELISA
Details in all cases: both partners purified
[1] = target: recombinant soluble trimeric H7 HA of A/Netherlands/219/2003 H7N7 (NL03 H7) (Influenza A virus …, UniProt Q6VMK1, strain)
[2] = target: recombinant soluble trimeric H15 HA of A/shearwater/Western Australia/2576/1979 H15N9 (wtWA79 H15) (Influenza A virus A/wedge-tailed …, UniProt Q20ND8, strain)
[3] = target: recombinant soluble trimeric H7 HA of A/Netherlands/219/2003 H7N7 (Influenza A virus …, UniProt Q6VMK1, strain)
[4] = target: recombinant soluble trimeric H15 HA of A/shearwater/Western Australia/2576/1979 H15N9 (Influenza A virus A/wedge-tailed …, UniProt Q20ND8, strain)

Binder | binding result [1] | binding result [2] | binding result [3] | binding result [4]
recombinant H7-235 IgG1 (rH7-235 IgG1) (antibody, V domains shown, IgG1; also called rH7-235 mAb; mAb H7-235; copies: 2 + 2) VH: QVQLVESGGGVVQPGESLRLSCAASGFAFRTYGMHWVRQAPGKGLEWVGVIWYDGSNKYYGDSVKGRFTISRDNSQNTLYLQMNSLRAEDTAVYYCARNGERWRVEDYYYGMDVWGQGTLVTVSS VL: EIVMTQSPLSLPVTPGEPASISCRSSQSLLHSNAHNYLDWYLQKPGQSPQLLIYLGSNRASGVPDRFSGSGSGTDFTLKISRVEAEDVGIYYCMQALQTPITFGQGTRLEIK | binds | no binding | – | –
rH7-235rev IgG1 (germline revertant form of rH7-235 IgG) (antibody, V domains shown) VH: QVQLVESGGGVVQPGRSLRLSCAASGFTFSSYGMHWVRQAPGKGLEWVAVIWYDGSNKYYADSVKGRFTISRDNSKNTLYLQMNSLRAEDTAVYYCARNGERWRVEDYYYGMDVWGQGTLVTVSS VL: not shown | – | – | no binding (tested: >10,000 ng/mL) | no binding (tested: >10,000 ng/mL)
rH7-235 IgG1 (recombinant human monoclonal antibody H7-235) (antibody, V domains shown, also called mAb H7-235; source: Expi293F, transient transfection, purified (MabSelect Sure)) VH: QVQLVESGGGVVQPGESLRLSCAASGFAFRTYGMHWVRQAPGKGLEWVGVIWYDGSNKYYGDSVKGRFTISRDNSQNTLYLQMNSLRAEDTAVYYCARNGERWRVEDYYYGMDVWGQGTLVTVSS VL: EIVMTQSPLSLPVTPGEPASISCRSSQSLLHSNAHNYLDWYLQKPGQSPQLLIYLGSNRASGVPDRFSGSGSGTDFTLKISRVEAEDVGIYYCMQALQTPITFGQGTRLEIK | – | – | – | no binding (tested: >10,000 ng/mL)
